{"source": "paper PMC6189696", "about": "“Choline sulfatase from Ensifer (Sinorhizobium) meliloti: Characterization of the unmodified enzyme” (Biochemistry and Biophysics Reports, 2015)", "molecules": {"B1": {"name": "Ensifer (Sinorhizobium) meliloti choline-O-sulfatase (enzyme, UniProt O69787 1-512, looked up)", "chain": "MTTGKPNILIIMVDQLNGKLFPDGPADFLHAPNLKALAKRSARFHNNYTSSPLCAPARASFMAGQLPSRTRVYDNAAEYQSSIPTYAHHLRRAGYYTALSGKMHFVGPDQLHGFEERLTTDIYPADFGWTPDYRKPGERIDWWYHNLGSVTGAGVAEITNQMEYDDEVAFLANQKLYQLSRENDDESRRPWCLTVSFTHPHDPYVARRKFWDLYEDCEHLTPEVGAIPLDEQDPHSQRIMLSCDYQNFDVTEENVRRSRRAYFANISYLDEKVGELIDTLTRTRMLDDTLILFCSDHGDMLGERGLWFKMNFFEGSARVPLMIAGPGIAPGLHLTPTSNLDVTPTLADLAGISLEEVRPWTDGVSLVPMVNGVERTEPVLMEYAAEASYAPLVAIREGKWKYVYCALDPEQLFDLEADPLELTNLAENPRGPVDQATLTAFRDMRAAHWDMEAFDAAVRESQARRWVVYEALRNGAYYPWDHQPLQKASERYMRNHMNLDTLEESKRYPRGE", "notes": "choline-O-sulfatase (betC gene product) of Ensifer (Sinorhizobium) meliloti, GenBank AAC13371.1; gene codon optimized for E. coli and subcloned in pET26b+; expected 59 kDa with the His6-tag; Active-site Cys54 is unmodified (no formylglycine) as expressed in E. coli; two of the six cysteines form a disulfide bridge; also called COS; choline sulfatase; source: E. coli BL21 (DE3), purified (His-Trap …)"}}, "key": {"[1]": {"target": "T1, choline-O-sulfatase (COS) (Sinorhizobium meliloti, UniProt O69787)", "T1 construct": "gene betC; full length, C-terminal His6 tag kept, pET26b+, codon-optimized gene, E. coli BL21(DE3); 59 kDa, homodimer (123 kDa); active-site Cys54 unmodified (no formylglycine)", "experiment": "isothermal titration calorimetry, multiple injections", "format": "biochemical", "settings": "substrate inhibition constant, second site; 200 mM Tris-HCl pH 7.5, 500 mM NaCl, 25 °C; enzyme without FGly", "excerpt": "(§1) isothermal titration calorimetry, multiple injections on choline-O-sulfatase (COS)"}, "[2]": {"target": "T1, choline-O-sulfatase (COS)", "experiment": "spectrophotometric pNPS hydrolysis, […] nm", "format": "biochemical"}, "[3]": {"substrate": "C[N+](C)(C)CCOS(=O)(=O)[O-]", "experiment": "isothermal titration calorimetry, multiple injections", "format": "biochemical, Sinorhizobium meliloti", "settings": "200 mM Tris-HCl pH 7.5, 500 mM NaCl, 25 °C, fit with substrate inhibition, enzyme without FGly", "excerpt": "as §1"}, "[4]": {"substrate": "O=[N+]([O-])c1ccc(OS(=O)(=O)O)cc1", "experiment": "purified protein", "format": "biochemical, Sinorhizobium meliloti", "settings": "200 mM Tris-HCl pH 7.5, 500 mM NaCl, 25 °C, 1-80 mM substrate, no saturation reached, enzyme without FGly"}, "[5]": {"substrate": "Cc1cc(=O)oc2cc(OS(=O)(=O)O)ccc12", "experiment": "purified protein", "format": "biochemical, Sinorhizobium meliloti", "settings": "200 mM Tris-HCl pH 7.5, 500 mM NaCl, 25 °C, 1-20 mM substrate, no saturation reached, enzyme without FGly"}, "[6]": {"target": "the molecule itself", "experiment": "SEC; analytical gel filtration on Superdex 200 10/300 GL, non-denaturing conditions, calibrated with Bio-Rad Gel Filtration Standard (1.35-670 kDa)"}}, "data": [{"molecule": "C[N+](C)(C)CCOS(=O)(=O)[O-]", "note": "[choline-O-sulfate]", "values": [{"measurement": "Ki (mM) ^a", "setting": "[1]", "result": "11.4 ± 1.1", "unit": "mM"}]}, {"molecule": "C[N+](C)(C)CCO", "note": "[choline]", "values": [{"measurement": "Ki", "setting": "[2]", "result": 57.8, "unit": "mM"}]}, {"molecule": "B1", "values": [{"measurement": "Km", "setting": "[3]", "result": "11.1 ± 1.0", "unit": "mM"}, {"measurement": "kcat", "setting": "[3]", "result": "0.27 ± 0.02", "unit": "s⁻¹"}, {"measurement": "kcat/Km", "setting": "[3]", "result": "24.3 ± 2.84", "unit": "M⁻¹ s⁻¹"}, {"measurement": "Km", "setting": "[4]", "result": "75.8 ± 15.0", "unit": "mM"}, {"measurement": "kcat", "setting": "[4]", "result": "0.035 ± 0.004", "unit": "s⁻¹"}, {"measurement": "kcat/Km", "setting": "[4]", "result": "0.46 ± 0.11", "unit": "M⁻¹ s⁻¹"}, {"measurement": "Km", "setting": "[5]", "result": "11.8 ± 1.4", "unit": "mM"}, {"measurement": "kcat", "setting": "[5]", "result": "0.043 ± 0.007", "unit": "s⁻¹"}, {"measurement": "kcat/Km", "setting": "[5]", "result": "3.64 ± 0.73", "unit": "M⁻¹ s⁻¹"}, {"measurement": "stoichiometry N", "setting": "[6]", "result": 2}]}]}
